Results as given in the nanobody polyreactivity screen of Harvey et al. (2022).

test: yeast display, Sf9 membrane polyspecificity reagent, FACS + sequencing; frameworks hold sequencing errors
How it was run: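 Galactose-induced (36–48 hours) yeast carrying a synthetic nanobody display library were exposed to 10% biotinylated, detergent-solubilized Sf9 membrane reagent at 4 °C for 1 hour. FACS followed streptavidin microbead enrichment, using low and high (top ~1%) gates for expression (anti-HA) and reagent binding (streptavidin). Colony PCR, MiSeq 2 × 250 sequencing and CDR-length filtering followed. Labels for polyreactivity reflect the gate of origin.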

Row | Sequence | polyreactivity (PSR sort gate)
1 | QVQLVESGGGLVQAGGSLRLSCAASGSIFNYYTMGWYRQAPGKERELVAAITWSGGRTYYADSVKGRFTISRDNAKNTVYLQMNSLKPEDTAVYYCNAVAYKPGGGDDFESWGQGTQLTVSS | high polyreactivity
2 | QVQLVESGGGLVQAGGSLRLSCAASGSIFPAIALGWYRQAPGKERELVAGISERGSSTYYADSVKGRFTISRDNAKNTVYLQMNSLKPEDTAVYYCAADDVGRYWSSTHNWARGDYWGQGTQVTVSS | low polyreactivity
3 | QVQLVESGGGLVQAGGSLRLSCAASGSIFPANVMGWYRQAPGKERELVAVISSSGGRTFYADSVKGRFTISRDNAKNTVYLQMNSLKPEDTAVYYCAATIYDYNRGRKYYYWGQGNQVTVSS | high polyreactivity
4 | QVQLVESGGGLVQAGGSLRLSCAASGSIFPAYAMGWYIQDHGKERELLAAITRGGRTNYADSVKGRFTISRDNAKNTVYLQMNSLKPEDTAVYYCAARGYYAYRFDYWGQGTQVTVSS | high polyreactivity
5 | QVQLVESGGGLVQAGGSLRLSCAASGSIFPAYAMGWYRQAPGKERELVAAITGSGGSTYYADSVKGRFTISRDNAKNTVYLQMNSLKPEDTAVYYCAATIRQYRRYDYWGQGTQVTVSS | low polyreactivity
6 | QVQLVESGGGLVQAGGSLRLSCAASGSIFPAYTMGRYRQAPGKEREMVAAIPYSGARSTYYADSVKGRFTISRDNAKNTVYLQMYSLKPEDTAVYYCNARSRARYFYDMDYWGQGTLVTVSS | low polyreactivity
7 | QVQLVESGGGLVQAGGSLRLSCAASGSIFPDNAMGWYRQAPGKERELVATIRSTGGTNYADSVKGRFTISRDNEKNTVYLQMNSLKPEDTAVYYCATDLWSTTGSEYDYWGQGTQVTVSS | low polyreactivity
8 | QVQLVESGGGLVQAGGSLRLSCAASGSIFPDNVMGWYRQAPGKEREFVAAISWTDGSTRYADSVKGRFTISRDNAKNTVYLQMNSLKPEDTAVYYCNVGTRASYQEGDYWGQGTQVTVSS | low polyreactivity
9 | QVQLVESGGGLVQAGGSLRLSCAASGSIFPFYAMGWYIQAPGKERELVAAISDRGGSTYYADSVKGRFTISRDNAKNTVYLQMNSLKPEDTAVYYCAADKYSQWSSHTRVRYDYWGQGTQVTVSS | low polyreactivity
10 | QVQLVESGGGLVQAGGSLRLSCAASGSIFPFYAMGWYRQAPGKERELVAAISDRGGSTYYADSVKGRFTISRDNAKNTVYLQMNSLKPEDTAVYYGAKGGEVSQGYTDEYDYWGQGTQVTVSS | low polyreactivity
11 | QVQLVESGGGLVQAGGSLRLSCAASGSIFPFYAMGWYRQAPGKERELVAGISGSAGRTYYADSVKGRFTISRDNAKNTVYLQMNSLKPEDTAVYYCAAVYYSSLYDYWGQGTQVTVSS | high polyreactivity
12 | QVQLVESGGGLVQAGGSLRLSCAASGSIFPGNAMGWYRQAPGKERELVAAISSSGGRTYYADSVKGRFTISRDNAKNTVYLQMNSLKPEDTAVYYCNRLQVYSYYPYYPWYNYWGQGTQVTVSS | high polyreactivity
13 | QVQLVESGGGLVQAGGSLRLSCAASGSIFPGNGMGWYRQAPGKERELVAAITWSVATTYYADSVKGRFTISRDNAKNTVYLQMNSLKPEDTAVYYCAADDAYPYDWGQGTQVTVSS | low polyreactivity
14 | QVQLVESGGGLVQAGGSLRLSCAASGSIFPGYAMGWYRQAPGKERELVATISTRGSTYYADSVKGRFTISRDNAKNTVYLQMNSLKPEDTAVYYCNTDFPTAQYDYWGQGTQVTVSS | low polyreactivity
15 | QVQLVESGGGLVQAGGSLRLSCAASGSIFPGYAMGWYRQAPGKERELVATITWSGGSTYYADSVKGRFTISRDNAKNTVYLQMNSLKPVDTAVYYCNADSNWYYQWNYYGLYDYWGQGTQVTVSS | low polyreactivity
16 | QVQLVESGGGLVQAGGSLRLSCAASGSIFPHNAMGWYRQAPGKERALVASITSRGGITYYADSVKGRFTISRDNAKNTVYLQMNSLKPEDTAVYYCNGVLYHYSPTDSWITYDYWGQGTQVTVSS | low polyreactivity
17 | QVQLVESGGGLVQAGGSLRLSCAASGSIFPHNAMGWYRQAPGTERELVASITSRGGITYYADSVKGRFTISRDNAKNTVYLQMNSLKPEDTAVYYCAADLYIYPYDYWGQGTQVTVSS | low polyreactivity
18 | QVQLVESGGGLVQAGGSLRLSCAASGSIFPINARGWYRQAPGKERELVAAISRRTGSTYYPDSVKGRFTISRDNAKNTVYVQMNSLKPEDTAVYYCAASYGTTRQRWLDYWGQGTQVTVSS | high polyreactivity
19 | QVQLVESGGGLVQAGGSLRLSCAASGSIFPIYAMGWYRQAPGKERELVAALNRSGGSTYYADSVKGRFTISRDNAKNTVYLQMNSLKPEDTAVYYCNADYGYHNQLFWGYYGWSSDHWGQGTQVTVSS | low polyreactivity
20 | QVQLVESGGGLVQAGGSLRLSCAASGSIFPIYAMGWYRQAPRKERELVAAISGSGARTYYADSVKGRFTISRDNAKNTVYLQMNSLKPEDTAVYYCNAKYGYDSEARIVKPVRYDYWGQGTQVTVSS | high polyreactivity
21 | QVQLVESGGGLVQAGGSLRLSCAASGSIFPLYAMGWYRQAPGKERELVAAISWSGGSTYYADSVKGRFTISRDNAKNTVYLQMNSLKPEDTAVYYCATLYISTSGYIYEGDYWGQGTQVTVSS | high polyreactivity
22 | QVQLVESGGGLVQAGGSLRLSCAASGSIFPPNAMGWYRQAPGKERELVAAITWSGGSTYYADSVKGRFTISRDNAKNTVYLQRNSLKPEDTAVYYCAKEGARSYNVRAYYYRNYYYWGQGTQVTVSS | high polyreactivity
23 | QVQLVESGGGLVQAGGSLRLSCAASGSIFPPYAMGWYRHAPGKERELVATITIRGGSTYYADSVKGRFTISRDNAKNTVYLQMNSLKPEDTAVYYCAADYSKYYRRYYYWGQGTQVTVSS | high polyreactivity
24 | QVQLVESGGGLVQAGGSLRLSCAASGSIFPPYVMGWYRQAPGKERELVASITTSGGSTYYADSVKGRFTISRDNAKNPVYLQMNSLKPEDTAVYYCAARWYYGGKSAGPGGGYWGQGTQVTVSS | low polyreactivity
25 | QVQLVESGGGLVQAGGSLRLSCAASGSIFPQNGMGWYRQAPGKERELVAAISSNGDNTYADSVKGRFTISRDNAKNTVYLQMNSLKPEDTAVYYCAAERRRTAGGVYHPWEDYWGQGTQVTVSS | low polyreactivity
26 | QVQLVESGGGLVQAGGSLRLSCAASGSIFPQYAMGWYRQAPGKERELVAVISWSGGRTYYADSVKGRFTISRDNAKNTVYLQMNSLKPEDTAVYYCAAKYWYQRYAQSSYTRYYWGQGTQVTVSS | high polyreactivity
27 | QVQLVESGGGLVQAGGSLRLSCAASGSIFPRNAMGWYRQAPGKERELVAAIRKSGGSTYYADSVKGRFTISRDNAKNTVYLQMNSLKPEDTAVYYCAKPYSVCCWQSPIYNYWGQGTQVTVSS | low polyreactivity
28 | QVQLVESGGGLVQAGGSLRLSCAASGSIFPRNTMGWYRQAPGKEREFVAAITTTGSRTYYADSVKGRFTISRDNAKNTVYLQMNSLKPEDTAVYYCAATRRWYPTKLYGYWGQGTQVTVSS | high polyreactivity
29 | QVQLVESGGGLVQAGGSLRLSCAASGSIFPSNAMGWYRQAPGKERELVAAINRDGITNYADSVKGRFTISRDNAKNTVYLQMNSLKPEDTAVYYCAAEFAWQWWEYGYWGQGTQVTVSS | low polyreactivity
30 | QVQLVESGGGLVQAGGSLRLSCAASGSIFPSYAMGWYRQAPGKERELVAAISRSAGSTYYADSVKGRFTISRDNAKNTVYLQMNSLKPEVTAVYYCAADVYSSRYRYDYWGQGTQVTVSS | low polyreactivity
